The values that follow come from publication PMC10857128.

For experiment [1], the target named is peppermint leaf-type ferredoxin NADP+ reductase (L-FNR) (Mentha × piperita (peppermint)).
Experiment [2] concerns the target peppermint root-type ferredoxin NADP+ reductase (R-FNR) (Mentha × piperita (peppermint)).
For experiment [3] the target is unchanged. This is another data set of the same source.

Turning to “peppermint root-type ferredoxin (Fd II) (natural protein)”, in experiment [1], the Km^Fd, FNR–Fd-dependent cytochrome c reduction (NADPH-dependent cytochrome c reductase assay, Fd varied 0.3-20 µM, 30 °C, 50 mM Tris pH 7.5) was determined as 2.8 µM; the kcat, FNR–Fd-dependent cytochrome c reduction (NADPH-dependent cytochrome c reductase assay, Fd varied 0.3-20 µM, 30 °C, 50 mM Tris pH 7.5) was found to be 304 s^−1; the kcat/Km^Fd, FNR–Fd-dependent cytochrome c reduction (NADPH-dependent cytochrome c reductase assay, Fd varied 0.3-20 µM, 30 °C, 50 mM Tris pH 7.5) came out at 109 µM^−1s^−1. In experiment [2], the Km^Fd, FNR–Fd-dependent cytochrome c reduction (NADPH-dependent cytochrome c reductase assay, Fd varied 0.3-20 µM, 30 °C, 50 mM Tris pH 7.5) came to 1.9 µM; the kcat, FNR–Fd-dependent cytochrome c reduction (NADPH-dependent cytochrome c reductase assay, Fd varied 0.3-20 µM, 30 °C, 50 mM Tris pH 7.5) is 428 s^−1; the kcat/Km^Fd, FNR–Fd-dependent cytochrome c reduction (NADPH-dependent cytochrome c reductase assay, Fd varied 0.3-20 µM, 30 °C, 50 mM Tris pH 7.5) turned out to be 222 µM^−1s^−1.
As to “peppermint leaf-type ferredoxin (Fd I) (natural protein)”, in experiment [1], the Km^Fd, FNR–Fd-dependent cytochrome c reduction (NADPH-dependent cytochrome c reductase assay, Fd varied 0.3-20 µM, 30 °C, 50 mM Tris pH 7.5) was determined as 2.3 µM; the kcat, FNR–Fd-dependent cytochrome c reduction (NADPH-dependent cytochrome c reductase assay, Fd varied 0.3-20 µM, 30 °C, 50 mM Tris pH 7.5) is 125 s^−1; the kcat/Km^Fd, FNR–Fd-dependent cytochrome c reduction (NADPH-dependent cytochrome c reductase assay, Fd varied 0.3-20 µM, 30 °C, 50 mM Tris pH 7.5) came to 54.2 µM^−1s^−1. Moreover, in experiment [2], the Km^Fd, FNR–Fd-dependent cytochrome c reduction (NADPH-dependent cytochrome c reductase assay, Fd varied 0.3-20 µM, 30 °C, 50 mM Tris pH 7.5) came to 3.6 µM; the kcat, FNR–Fd-dependent cytochrome c reduction (NADPH-dependent cytochrome c reductase assay, Fd varied 0.3-20 µM, 30 °C, 50 mM Tris pH 7.5) came out at 281 s^−1; the kcat/Km^Fd, FNR–Fd-dependent cytochrome c reduction (NADPH-dependent cytochrome c reductase assay, Fd varied 0.3-20 µM, 30 °C, 50 mM Tris pH 7.5) was found to be 78.3 µM^−1s^−1.
Turning to “peppermint root-type ferredoxin (Fd III) (natural protein)”, in experiment [1], the Km^Fd, FNR–Fd-dependent cytochrome c reduction (NADPH-dependent cytochrome c reductase assay, Fd varied 0.3-20 µM, 30 °C, 50 mM Tris pH 7.5) is 2.9 µM; the kcat, FNR–Fd-dependent cytochrome c reduction (NADPH-dependent cytochrome c reductase assay, Fd varied 0.3-20 µM, 30 °C, 50 mM Tris pH 7.5) was 286 s^−1; the kcat/Km^Fd, FNR–Fd-dependent cytochrome c reduction (NADPH-dependent cytochrome c reductase assay, Fd varied 0.3-20 µM, 30 °C, 50 mM Tris pH 7.5) was determined as 98.1 µM^−1s^−1. Further, in experiment [2], the Km^Fd, FNR–Fd-dependent cytochrome c reduction (NADPH-dependent cytochrome c reductase assay, Fd varied 0.3-20 µM, 30 °C, 50 mM Tris pH 7.5) was 2.3 µM; the kcat, FNR–Fd-dependent cytochrome c reduction (NADPH-dependent cytochrome c reductase assay, Fd varied 0.3-20 µM, 30 °C, 50 mM Tris pH 7.5) is 428 s^−1; the kcat/Km^Fd, FNR–Fd-dependent cytochrome c reduction (NADPH-dependent cytochrome c reductase assay, Fd varied 0.3-20 µM, 30 °C, 50 mM Tris pH 7.5) is 189 µM^−1s^−1. In addition, the Km value for Fd III as told in the text, NADPH-dependent cytochrome c reductase assay (differs from the cell of Table 2) in experiment [3] turned out to be 2.1 µM.
